Reference: patent US20210000895A1 (RHODE ISLAND HOSPITAL, published 2021)

Biological target: CD4 receptor on primary human CD4+ T lymphocytes (human, UniProt P01730 26-458)
Test: cell-based or functional assay

B1: IL-16/Lamp2b fusion protein (Interleukin (IL)-16 C-terminal 20 amino acid domain fused to the N-terminus of lysosome-associated membrane protein 2 variant b), … (other)
chain: GNSTMGSGTIVIRRKSLQSKETTAAGDSGSGSGSGGSSLELNLTDSENATCLYAKWQMNFTVRYETTNKTYKTVTISDHGTVTYNGSICGDDQNGPKIAVQFGPGFSWIANFTKAASTYSIDSVSFSYNTGDNTTFPDAEDKGILTVDELLAIRIPLNDLFRCNSLSTLEKNDVVQHYWDVLVQAFVQNGTVSTNEFLCDKDKTSTVAPTIHTTVPSPTTTPTPKEKPEAGTYSVNNGNDTCLLATMGLQLNITQDKVASVININPNTTHSTGSCRSHTALLRLNSSTIKYLDFVFAVKNENRFYLKEVNISMYLVNGSVFSIANNNLSYWDAPLGSSYMCNKEQTVSVSGAFQINTFDLRVQPFNVTQGKYSTAQECSLDDDTILIPIIVGAGLSGLIIVIVIAYVIGRRKSYAGYQTLGSGYPYDVPDYA
With B1 as the binder, how does the “Tat protein delivery to rCD4+T lymphocytes (Western blot of intracellular Tat), EXO^CD4-Tat exosomes compared to EXO-Tat exosomes” value read?
The value was 20 fold.
